Data taken from paper PMC11741606 (2025).

T1: TGEV RBD (receptor-binding domain of the transmissible gastroenteritis coronavirus spike protein) (transmissible gastroenteritis …)
T1 chain: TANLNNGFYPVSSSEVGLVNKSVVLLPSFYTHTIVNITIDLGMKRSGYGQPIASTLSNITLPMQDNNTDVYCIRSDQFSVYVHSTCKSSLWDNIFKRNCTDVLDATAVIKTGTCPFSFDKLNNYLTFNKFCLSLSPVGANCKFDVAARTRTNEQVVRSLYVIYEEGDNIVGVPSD

B1: cat aminopeptidase N ectodomain fused with the Fc domain of human IgG (Fc fusion)
chain: YSQEKNRSTESSTAASTAAPTGPTTTVATTLDQSKPWNVYRLPKTLIPDSYNVTLRPYLTPNNKGLYVFTGTNIVRFTCKESTNIVIIHSKRLNYTSHQGHMVALSGVGGFHPQPVIVRTELVELTEYLVVHLQEPLVAGRQYEMNSEFQGELADDLAGFYRSEYMENGVKKVLATTHMQATEARKSFPCFDEPAMKATFNITIIHPNNLVALSNMLPRGPSVPFGEDPTWKVTEFETTPIMSTYLLAYIVSEFSYVETRAPSGVLIRIWARPSAINQGHGDYALKVTGPILDFFSQHYDTPYPLNKSDQIALPDFNAGAMENWGLVTYRESALLYDRQSSSSGNQERVVTVIAHELAHQWFGNLVTLEWWNDLWLNEGFASYVEYLGADFAEPTWNLKDLMVLNDVYRVMAVDALASSHPLSTPASEINTPAQISEVFDSISYSKGASVLRMLSNFLTEDLFKMGIASYLHTYKYGNTIYLNLWEHLQQVVDKQPTIKLPDTVSAIMDRWILQMGFPVITVDTQTGTISQQHFLLDPQSVVTRPSQFNYLWIVPISSVRSGSPQAHYWLPGVEKAQNDLFKTTANDWVLLNLNVTGYYLVNYDNENWKKIQTQLQTDLSVIPVINRAQVIHDAFNLASAQKVPVTLALNNTLFLIQETEYMPWQAALSSLSYFKLMFDRSEVYGPMKRYLKKQVTPLFNHFERVTKNWTDHPQTLMDQYSEINAVSTACSYGVPECEKLAATLFAQWKKNPQNNPIHPNLRSTVYCNAIAQGGEEEWNFVWEQFLKAELVNEADKLRGALACSNQVWILNRFLSYTLDPNLIRKQDVTSTLSSISSNVVGQTLVWDFVQSNWKKLFQDYGTGSFSFSNLIQAVTRRFSTEFELQQLEQFKKNNMDTGFGSATRALEQALEKTKANLKWVKENKDVVLRWFTENS
B2: PDCoV RBD (receptor-binding domain of the porcine deltacoronavirus spike protein) (domain or fragment)
chain: VTLPKLPELEVVQLNISAHMDFGEARLDSVTINGNTSYCVTKPYFRLETNFMCTGCTMNLRTDTCSFDLSAVNNGMSFSQFCLSTESGACEMKIIVTYVWNYLLRQRLYVTAVEGQTHTGTTSVHATDTSSV
B3: bovine aminopeptidase N ectodomain fused with the Fc domain of human IgG (Fc fusion)
chain: YAQEKNKNAERGTAAPTSPTGPTTTSATTLDQSKPWNRYRLPTTLLPDSYRVTLRPYLTPNNNGLYIFTGSSTVRFTCKEPTDVIIIHSKKLNYTQHSGHLAALKGVGDTQAPEIDRTELVLLTEYLVVHLKSSLEAGKTYEMETTFQGELADDLAGFYRSEYMDGNVKKVLATTQMQSTDARKSFPCFDEPAMKATFNITLIHPKDLTALSNMPPKGPSVPFDGDSNWSVTEFETTPVMSTYLLAYIVSEFTSVESVAPNDVQIRIWARPKATADNHGLYALNVTGPILNFFANHYNTAYPLPKSDQIALPDFNAGAMENWGLVTYRENALLYDPQSSSSSNKERVVTVIAHELAHQWFGNLVTLAWWNDLWLNEGFASYVEYLGADYAEPTWNLKDLMVPNDVYSVMAVDALVTSHPLTTPANEVNTPAQISEMFDTISYSKGASVIRMLSNFLTEDLFKKGLASYLQTFAYQNTTYLNLWEHLQMAVENQLSIRLPDTVSAIMDRWTLQMGFPVITVDTNTGTISQKHFLLDPNSTVTRPSQFNYLWIVPISSIRNGQPQEHYWLRGEERNQNELFKAAADDWVLLNINVTGYYQVNYDENNWKKIQNQLMSRRENIPVINRAQVIYDSFNLASAHMVPVTLALNNTLFLKNEMEYMPWQAAVSSLNYFKLMFDRTEVYGPMQNYLKNQVEPIFLYFENLTKNWTEIPENLMDQYSEINAISTACSNGLPKCEELAKTLFNQWMNNPNVNPIDPNLRSTIYCNAIAQGGQEEWDFAWNQLQQAELVNEADKLRSALACTNHVWLLNRYLSYTLNPDLIRKQDATSTITSIASNVIGQSLAWDFIRSNWKKLFEDYGGGSFSFSNLIQGVTRRFSTEFELQQLEEFKENNMDVGFGSGTRALEQALEKTKANINWVKENKEVVLNWFKDHS
modifications: Wild type. Position 797 in the paper is dog APN alignment numbering, not bovine numbering. Limits from TOPO_DOM extracellular. hFc carrier omitted. N-glycosylated (HEK293T).

Experiments:
[1] = biological target: T1, TGEV RBD (receptor-binding domain of …); test: SPR
[2] = biological target: Arabian camel aminopeptidase N ectodomain fused with the Fc domain of human IgG (Arabian camel (Camelus dromedarius)); test: SPR

| Binder | Kd [1] [nM] | Kd [2] [nM] |
| --- | --- | --- |
| B1 | 35.6 | – |
| B2 | – | 10800 |
| B3 | 1660 | – |
